Article PMC6336354, “A transient helix in the disordered region of dynein light intermediate chain links the motor to structurally diverse adaptors for cargo transport” (PLoS Biology, 2019)

T1: RILP(1–401)::Strep-tag II (human, UniProt Q96NA2 1-401)
T1 construct: also called RILP::Strep-tag II; source: Sf21 insect cells (baculovirus), purified (Strep-Tactin Sepharose); not shown: Strep-tag II (after linker GSGSGR), C-terminal, kept
T1 sequence (looked up): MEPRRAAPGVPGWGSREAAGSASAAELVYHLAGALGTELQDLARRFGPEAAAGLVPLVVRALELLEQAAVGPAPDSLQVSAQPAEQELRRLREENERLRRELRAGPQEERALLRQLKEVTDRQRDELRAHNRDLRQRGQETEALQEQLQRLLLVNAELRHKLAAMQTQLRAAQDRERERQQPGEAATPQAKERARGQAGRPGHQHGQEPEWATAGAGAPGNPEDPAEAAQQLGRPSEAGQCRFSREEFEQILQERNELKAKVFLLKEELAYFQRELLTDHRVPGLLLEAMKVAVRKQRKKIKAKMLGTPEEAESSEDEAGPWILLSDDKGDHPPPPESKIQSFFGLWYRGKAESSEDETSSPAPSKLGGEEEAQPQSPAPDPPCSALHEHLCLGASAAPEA

T2: NIN(1–693)::Strep-tag II (human, UniProt Q8N4C6 1-693)
T2 construct: human ninein (NIN), N-terminal fragment, residues 1-693 of 2,090; also called ninein; source: E. coli Rosetta, purified (Ni-NTA, TEV cleavage, Strep-Tactin; dialysis or SEC); not shown: 6xHis::MBP, N-terminal, cleaved; Strep-tag II (after linker GSGSGR), C-terminal, kept
T2 sequence (looked up): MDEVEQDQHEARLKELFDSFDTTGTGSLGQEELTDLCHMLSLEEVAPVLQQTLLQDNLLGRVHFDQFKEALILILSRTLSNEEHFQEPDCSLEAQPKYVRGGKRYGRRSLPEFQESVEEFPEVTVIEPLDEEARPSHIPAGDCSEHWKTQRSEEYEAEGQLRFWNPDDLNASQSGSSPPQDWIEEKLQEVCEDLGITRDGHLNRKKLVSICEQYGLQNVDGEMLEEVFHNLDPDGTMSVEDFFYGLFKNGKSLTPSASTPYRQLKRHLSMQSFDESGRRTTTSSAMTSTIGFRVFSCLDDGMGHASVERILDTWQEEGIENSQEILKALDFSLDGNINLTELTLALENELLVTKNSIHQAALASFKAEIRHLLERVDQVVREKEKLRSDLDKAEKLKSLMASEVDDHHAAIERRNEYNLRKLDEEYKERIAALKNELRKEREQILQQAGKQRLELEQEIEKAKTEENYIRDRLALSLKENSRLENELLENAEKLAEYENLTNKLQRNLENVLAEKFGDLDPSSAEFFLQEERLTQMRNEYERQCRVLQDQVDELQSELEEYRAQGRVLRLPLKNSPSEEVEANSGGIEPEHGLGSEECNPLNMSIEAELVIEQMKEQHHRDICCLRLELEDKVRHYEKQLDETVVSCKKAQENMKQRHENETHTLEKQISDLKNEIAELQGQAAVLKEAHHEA

T3: RAB11FIP3(2–756)::Strep-tag II (human, UniProt O75154 2-756)
T3 construct: source: E. coli BL21, purified (Ni-NTA, TEV cleavage, Strep-Tactin; dialysis or SEC); not shown: 6xHis::MBP, N-terminal, cleaved; Strep-tag II (after linker GSGSGR), C-terminal, kept
T3 sequence (looked up): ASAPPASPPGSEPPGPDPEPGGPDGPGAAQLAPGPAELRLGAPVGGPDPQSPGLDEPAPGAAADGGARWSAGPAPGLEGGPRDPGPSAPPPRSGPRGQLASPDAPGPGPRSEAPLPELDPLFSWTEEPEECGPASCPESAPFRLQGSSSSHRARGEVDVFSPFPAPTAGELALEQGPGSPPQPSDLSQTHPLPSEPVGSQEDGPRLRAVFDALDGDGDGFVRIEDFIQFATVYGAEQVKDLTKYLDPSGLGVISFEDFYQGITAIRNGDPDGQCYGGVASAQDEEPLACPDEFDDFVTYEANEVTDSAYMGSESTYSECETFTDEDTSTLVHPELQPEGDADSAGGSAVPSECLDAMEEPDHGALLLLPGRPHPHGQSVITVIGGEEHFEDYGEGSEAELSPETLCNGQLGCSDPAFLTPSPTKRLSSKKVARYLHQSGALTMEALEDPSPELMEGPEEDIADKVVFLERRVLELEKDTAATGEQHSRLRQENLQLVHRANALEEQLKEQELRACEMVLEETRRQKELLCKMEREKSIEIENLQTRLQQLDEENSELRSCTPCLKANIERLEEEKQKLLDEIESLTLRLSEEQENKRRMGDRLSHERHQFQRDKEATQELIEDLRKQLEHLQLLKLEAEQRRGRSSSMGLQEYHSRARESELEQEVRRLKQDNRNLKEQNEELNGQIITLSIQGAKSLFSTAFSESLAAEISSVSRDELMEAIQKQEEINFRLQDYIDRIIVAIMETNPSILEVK

T4: HOOK3(2–552)::Strep-tag II (human, UniProt Q86VS8 2-552)
T4 construct: human Hook homolog 3 (HOOK3), residues 2-552; used for the GST pull-downs; also called Hook homolog 3; source: E. coli Rosetta, purified (Ni-NTA, TEV cleavage, Strep-Tactin; dialysis or SEC); not shown: 6xHis::MBP, N-terminal, cleaved; Strep-tag II (after linker GSGSGR), C-terminal, kept
T4 sequence (looked up): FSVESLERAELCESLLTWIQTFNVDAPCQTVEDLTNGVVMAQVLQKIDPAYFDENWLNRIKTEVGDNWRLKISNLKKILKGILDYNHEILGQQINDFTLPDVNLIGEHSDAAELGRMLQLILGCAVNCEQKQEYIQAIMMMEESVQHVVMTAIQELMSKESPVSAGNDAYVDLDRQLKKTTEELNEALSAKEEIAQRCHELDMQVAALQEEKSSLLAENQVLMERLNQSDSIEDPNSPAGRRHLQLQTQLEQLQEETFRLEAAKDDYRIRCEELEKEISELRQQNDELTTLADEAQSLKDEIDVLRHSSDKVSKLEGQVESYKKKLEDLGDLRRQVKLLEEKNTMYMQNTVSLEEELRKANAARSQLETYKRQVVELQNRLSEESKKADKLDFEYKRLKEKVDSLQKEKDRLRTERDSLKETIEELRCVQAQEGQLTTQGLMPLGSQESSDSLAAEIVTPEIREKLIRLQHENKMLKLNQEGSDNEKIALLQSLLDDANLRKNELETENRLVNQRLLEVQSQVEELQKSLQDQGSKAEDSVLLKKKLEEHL

T5: SPDL1(2–359)::Strep-tag II (human, UniProt Q96EA4 2-359)
T5 construct: human Spindly (SPDL1), N-terminal region, residues 2-359; also called Spindly; source: E. coli BL21, purified (Ni-NTA, TEV cleavage, Strep-Tactin; dialysis or SEC); not shown: 6xHis::MBP, N-terminal, cleaved; Strep-tag II (after linker GSGSGR), C-terminal, kept
T5 sequence (looked up): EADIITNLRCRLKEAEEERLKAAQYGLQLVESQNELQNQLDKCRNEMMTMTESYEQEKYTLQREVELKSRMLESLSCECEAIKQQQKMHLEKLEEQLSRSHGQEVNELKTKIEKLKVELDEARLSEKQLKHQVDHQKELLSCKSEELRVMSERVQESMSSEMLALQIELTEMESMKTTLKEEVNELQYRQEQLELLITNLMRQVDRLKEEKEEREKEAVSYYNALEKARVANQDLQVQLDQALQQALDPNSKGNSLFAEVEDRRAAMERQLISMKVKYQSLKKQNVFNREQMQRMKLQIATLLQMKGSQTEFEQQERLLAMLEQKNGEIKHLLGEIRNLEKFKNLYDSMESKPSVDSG


Legend:
Settings in all cases: both partners purified
[1] = biological target: T1, RILP(1–401)::Strep-tag II; assay: SPR; Biacore X100, CM5 chip; GST::LIC1::6xHis captured by immobilised anti-GST antibody, RILP::Strep-tag II as analyte (0.3–50 μM); 25°C; 10 mM HEPES, 150 mM NaCl, 3 mM EDTA, 0.05% surfactant P20, pH 7.4; 1:1 model
NIN(1–693)::Strep-tag II = biological target: T2, NIN(1–693)::Strep-tag II; assay: pull-down; GST::LIC::6xHis (50 pmol) with 50 or 250 pmol adaptor and glutathione agarose, 1 h at 4°C, 150 μL of 50 mM HEPES, 100 mM NaCl, 5 mM DTT, pH 7.5, 0.1% Tween 20; Coomassie staining and immunoblot against Strep-tag II
[2] = biological target: T3, RAB11FIP3(2–756)::Strep-tag II; assay: as above
[3] = biological target: T4, HOOK3(2–552)::Strep-tag II; assay: as above
[4] = biological target: T1, RILP(1–401)::Strep-tag II; assay: as above
[5] = biological target: T6, BICD2(2–422)::Strep-tag II (human, UniProt Q8TD16 2-422); assay: SPR; Biacore 3000; His-tagged LIC1 immobilised on NTA chip (200–300 RU), Strep-tagged adaptor as analyte; HBS-P (10 mM HEPES, 150 mM NaCl, 0.005% surfactant P20, pH 7.4)
T6 construct: human bicaudal D homolog 2 (BICD2), N-terminal region, residues 2-422; also called bicaudal D homolog 2; source: E. coli BL21, purified (Ni-NTA, TEV cleavage, Strep-Tactin; dialysis or SEC); not shown: 6xHis::MBP, N-terminal, cleaved; Strep-tag II (after linker GSGSGR), C-terminal, kept
T6 sequence (Q8TD16 2-422): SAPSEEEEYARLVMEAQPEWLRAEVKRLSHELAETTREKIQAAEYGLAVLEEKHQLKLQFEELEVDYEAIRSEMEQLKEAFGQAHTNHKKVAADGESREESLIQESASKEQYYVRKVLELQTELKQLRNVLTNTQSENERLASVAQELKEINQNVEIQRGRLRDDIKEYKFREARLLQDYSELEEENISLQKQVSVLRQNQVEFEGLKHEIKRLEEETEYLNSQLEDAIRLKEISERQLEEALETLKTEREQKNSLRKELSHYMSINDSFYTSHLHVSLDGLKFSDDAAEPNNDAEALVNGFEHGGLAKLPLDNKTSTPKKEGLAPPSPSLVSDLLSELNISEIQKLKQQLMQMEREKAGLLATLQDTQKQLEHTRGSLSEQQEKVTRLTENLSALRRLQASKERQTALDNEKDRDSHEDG

[6] = biological target: T5, SPDL1(2–359)::Strep-tag II; assay: as above
[7] = biological target: T6, BICD2(2–422)::Strep-tag II; assay: pull-down; GST::LIC::6xHis (50 pmol) with 50 or 250 pmol adaptor and glutathione agarose, 1 h at 4°C, 150 μL of 50 mM HEPES, 100 mM NaCl, 5 mM DTT, pH 7.5, 0.1% Tween 20; Coomassie staining and immunoblot against Strep-tag II

Binder | Kd [1] | koff [1] | kon [1] | binding result (NIN(1–693)::Strep-tag II) | binding result [2] | binding result [3] | binding result [4] | binding result [7] | also measured
GST::LIC1(388–523)::6xHis (domain or fragment, human, single N-terminal tryptophan added in the construct; also called LIC1-C; source: E. coli BL21, purified (glutathione agarose, Ni-NTA; dialysis or SEC); not shown: GST, N-terminal, kept; 6xHis (after linker GSGSG), C-terminal, kept) WPTAAGRPVDASPRVPGGSPRTPNRSVSSNVASVSPIPAGSKKIDPNMKAGATSEGVLANFFNSLLSKKTGSPGGPGVSGGSPAGGAGGGSSGLPPSTKKSGQKPVLDVHAELDRITRKPVTVSPTTPTSPTEGEAS | 1.18 µM | 0.00101 s⁻¹ | 872 M⁻¹ s⁻¹ | binds | binds |  |  |  | 
GST::LIC1(388–471)::6xHis (domain or fragment, human, single N-terminal tryptophan added in the construct; source: E. coli BL21, purified (glutathione agarose, Ni-NTA; dialysis or SEC); not shown: GST, N-terminal, kept; 6xHis (after linker GSGSG), C-terminal, kept) WPTAAGRPVDASPRVPGGSPRTPNRSVSSNVASVSPIPAGSKKIDPNMKAGATSEGVLANFFNSLLSKKTGSPGGPGVSGGSPAG |  |  |  | binds | binds | binds | binds |  | 
LIC1(388–471)::6xHis (domain or fragment, human, single N-terminal tryptophan added in the construct; source: E. coli BL21, purified (GSTrap, PreScission cleavage, second GSTrap, SEC Superdex 75); not shown: GST, N-terminal, cleaved; 6xHis (after linker GSGSG), C-terminal, kept) WPTAAGRPVDASPRVPGGSPRTPNRSVSSNVASVSPIPAGSKKIDPNMKAGATSEGVLANFFNSLLSKKTGSPGGPGVSGGSPAG |  |  |  |  |  |  |  |  | Kd [5]: 0.7 µM; Kd [6]: 5.4 µM
WPAGSKKIDPNMKAGATSEGVLANFFNSLLSKKTGSPGGPGVSGGSPAG (domain or fragment, human, single N-terminal tryptophan added in the construct; human dynein light intermediate chain 1 (DYNC1LI1), residues 424-471; source: E. coli BL21, purified (glutathione agarose, Ni-NTA; dialysis or SEC); not shown: GST, N-terminal, kept; 6xHis (after linker GSGSG), C-terminal, kept) [GST::LIC1(424–471)::6xHis] |  |  |  |  |  | binds | binds | binds | 
WSEGVLANFFNSLLSKKTGSPGGPGVSGGSPAG (domain or fragment, human, single N-terminal tryptophan added in the construct; human dynein light intermediate chain 1 (DYNC1LI1), residues 440-471; source: E. coli BL21, purified (glutathione agarose, Ni-NTA; dialysis or SEC); not shown: GST, N-terminal, kept; 6xHis (after linker GSGSG), C-terminal, kept) [GST::LIC1(440–471)::6xHis] |  |  |  |  |  | binds | binds | binds | 
WSEGVLANFFNSLLSKK (single N-terminal tryptophan added in the construct; human dynein light intermediate chain 1 (DYNC1LI1), helix 1, residues 440-455; also called LIC1-C helix 1; GST::LIC1(440–455)::6His; source: E. coli BL21, purified (glutathione agarose, Ni-NTA; dialysis or SEC); not shown: GST, N-terminal, kept; 6xHis (after linker GSGSG), C-terminal, kept) [GST::LIC1(440–455)::6xHis] | 1.67 µM | 0.000996 s⁻¹ | 606 M⁻¹ s⁻¹ |  |  |  |  |  | 
